“Also recorded” adds a separate entry of the source.
Experiments:
human endothelial cells = test: FACS binding of biotinylated proteins to endothelial cells in suspension; assay type: cell-based; conditions: 0.1 μM, 60 min at 4° C., streptavidin-phycoerythrin detection
Method: FIG. 6: Binding of tTF and tTF-RGD to human endothelial cells. A: FACS analysis of endothelial cells incubated with 0.1 μM tTF (2) or with 0.1 μM tTF-RGD (3) for 60 min at 4° C. […] Curves 1 in A and B show the negative control.
Next the specific binding of tTF-RGD to αvβ3 on endothelial cells was evaluated. For this, the differential binding of biotinylated tTF and tTF-RGD to endothelial cells in suspension was analysed by FACS (Fluorescence Activated Cell Sorting). The fact that all endothelial cells held in tissue culture are activated, i.e. express αvβ3 molecules, is utilized experimentally. This can be detected by various immunohistochemical methods. A cultivated endothelial cell thus corresponds, in relation to its expression pattern with respect to αvβ3 to a tumor endothelial cell. Accordingly, a cultivated endothelial cell can be used as a model system for the specific binding of substances to tumor endothelial cells and also permits predictions to be made concerning the expected toxicity.
Streptavidin-phycoerythrin was used as the detection method. The measured fluorescence intensity for tTF-RGD was higher by a factor of 8 than for tTF (FIG. 6A). Furthermore, the binding of 0.1 μM tTF-RGD to endothelial cells was lowered competitively by 75% by the administration of 1 μM of the synthetic peptide GRGDSP (SEQ ID NO:33) (FIG. 6B). […]

[1] = system: human fibrosarcoma (HT1080); test: HT1080 fibrosarcoma xenograft in BALB/c nude mice, intravenous therapy; assay type: in vivo
Source text: b: Inhibition of a human fibrosarcoma (HT1080) growing as a xenograft in athymic nude mice by intravenous therapy with tTF fusion proteins (tTF-RGD, n=12) compared with the growth of the tumors with infusion of physiological saline solution (NaCl, n=15) or tTF (n=14). The vertical arrows indicate the times of the injections with the respective substances.
The antitumor activity of the tTF-RGD fusion protein was also investigated in BALB/c nude mice with fibrosarcomas (HT1080). These tumors grow rapidly and are well-vascularized. […] This effect lasted until the end of the experiment on day 7 (P=0.021 for tTF-RGD relative to the buffer control (physiological saline solution), P=0.005 for tTF-RGD relative to tTF).

integrin αvβ3 = integrin αvβ3 (Homo sapiens, UniProt P05106+P06756); test: ELISA binding to immobilized purified αvβ3; conditions: 0.1 μM protein, immobilized αvβ3
Sequence of integrin αvβ3 (P06756 31-889 limits assumed): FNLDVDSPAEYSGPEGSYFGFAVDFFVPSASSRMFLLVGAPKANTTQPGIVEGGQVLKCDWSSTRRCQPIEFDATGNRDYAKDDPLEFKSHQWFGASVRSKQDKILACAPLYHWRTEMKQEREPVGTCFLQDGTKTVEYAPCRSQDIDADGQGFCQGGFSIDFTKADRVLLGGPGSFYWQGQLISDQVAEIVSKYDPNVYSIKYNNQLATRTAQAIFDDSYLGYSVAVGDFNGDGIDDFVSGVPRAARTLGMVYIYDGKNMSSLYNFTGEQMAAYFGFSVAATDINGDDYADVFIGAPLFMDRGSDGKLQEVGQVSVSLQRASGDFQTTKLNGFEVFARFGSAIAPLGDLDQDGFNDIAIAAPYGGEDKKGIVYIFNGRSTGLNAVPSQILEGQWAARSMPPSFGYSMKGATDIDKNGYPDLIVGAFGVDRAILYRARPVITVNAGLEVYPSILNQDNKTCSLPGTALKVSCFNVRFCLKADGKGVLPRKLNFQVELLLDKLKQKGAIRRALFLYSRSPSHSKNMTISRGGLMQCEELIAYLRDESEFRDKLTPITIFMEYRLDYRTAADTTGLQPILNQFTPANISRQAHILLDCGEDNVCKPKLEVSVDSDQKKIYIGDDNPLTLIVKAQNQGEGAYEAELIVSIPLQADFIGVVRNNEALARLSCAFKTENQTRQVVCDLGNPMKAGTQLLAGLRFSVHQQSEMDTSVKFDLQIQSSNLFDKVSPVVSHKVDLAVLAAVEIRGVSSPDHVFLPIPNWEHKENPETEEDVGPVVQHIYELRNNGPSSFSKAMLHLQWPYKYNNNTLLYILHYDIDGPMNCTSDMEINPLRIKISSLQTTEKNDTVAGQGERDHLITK
Sequence of integrin αvβ3 (P06756 891-1048 limits assumed): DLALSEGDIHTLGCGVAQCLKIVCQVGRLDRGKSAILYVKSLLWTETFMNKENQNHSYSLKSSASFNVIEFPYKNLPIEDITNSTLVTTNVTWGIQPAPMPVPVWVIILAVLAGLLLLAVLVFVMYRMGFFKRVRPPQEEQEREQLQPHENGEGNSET
Sequence of integrin αvβ3 (P05106 27-788): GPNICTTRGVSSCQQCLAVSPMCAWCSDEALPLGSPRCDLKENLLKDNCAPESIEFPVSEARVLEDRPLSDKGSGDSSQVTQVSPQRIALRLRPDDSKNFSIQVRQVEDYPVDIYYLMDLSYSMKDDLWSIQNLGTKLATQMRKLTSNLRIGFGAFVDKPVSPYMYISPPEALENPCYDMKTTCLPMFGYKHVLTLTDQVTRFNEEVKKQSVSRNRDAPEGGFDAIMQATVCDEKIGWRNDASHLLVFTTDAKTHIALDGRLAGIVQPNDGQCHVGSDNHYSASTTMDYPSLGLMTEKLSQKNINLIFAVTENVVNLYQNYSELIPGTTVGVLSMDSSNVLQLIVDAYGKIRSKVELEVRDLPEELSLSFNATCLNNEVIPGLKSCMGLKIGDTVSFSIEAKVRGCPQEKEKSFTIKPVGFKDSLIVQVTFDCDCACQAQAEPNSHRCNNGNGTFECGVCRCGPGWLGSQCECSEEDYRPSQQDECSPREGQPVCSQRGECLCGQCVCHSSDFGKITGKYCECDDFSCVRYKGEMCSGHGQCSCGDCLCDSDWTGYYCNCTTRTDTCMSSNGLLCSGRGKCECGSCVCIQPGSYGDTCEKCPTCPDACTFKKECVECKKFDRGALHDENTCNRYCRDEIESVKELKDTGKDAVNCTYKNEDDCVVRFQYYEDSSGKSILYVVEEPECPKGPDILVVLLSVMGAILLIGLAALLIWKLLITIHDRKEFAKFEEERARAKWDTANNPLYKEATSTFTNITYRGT
Method: FIG. 4: Binding of tTF, tTF-RGD and tTF-NGR to integrin αvβ3. The binding of 0.1 μM tTF, tTF-RGD and tTF-NGR to immobilized αvβ3 was quantified with a polyclonal antibody against human TF (American Diagnostica) in an ELISA. The results are presented as median and interquartile range. The differences in binding between tTF-RGD and tTF or between tTF-NGR and tTF were statistically significant (p<0.001, Mann-Whitney test).

[2] = system: normal tissue such as heart, kidney, liver and lung; conditions: mouse, in vivo
[3] = system: human malignant melanoma (M21); test: M21 melanoma xenograft in athymic nude mice, intravenous therapy; assay type: in vivo
Method: The vertical arrows indicate the times of injection with the respective substances.
The vertical arrows indicate the times of the injections with the respective substances.
(§1) The tTF-RGD and tTF-NGR fusion proteins were evaluated with respect to their effects and side-effects on xenografts of human tumors in athymic nude mice. The models established in our laboratory were used for this (33, 34). The cell lines CCL185 (human adenocarcinoma of the lung) and M-21 (human melanoma) were injected subcutaneously into the flank of male BALB/c nude mice (9-12 weeks old). On attaining a tumor volume of about 50-100 mm^3 (CCL185) or 400-600 mm^3 (M−21), the mice were assigned to four groups at random. Group 1 received only physiological saline solution (NaCl), group 2 tTF, group 3 tTF-RGD, and group 4 tTF-NGR (in each case 1.5-2.0 mg/kg body weight (BW) of the protein). The injections were made in the caudal vein of the animals at intervals of 1-3 days (depending on the growth rate of the particular cell line). Considerable therapeutic activity of the fusion proteins was observed.

[4] = system: human lung carcinoma (CCL185); test: CCL185 lung carcinoma xenograft in athymic nude mice, intravenous therapy; assay type: in vivo
Source text: FIG. 7: Inhibition of a human lung carcinoma (CCL185) growing as a xenograft in athymic nude mice by intravenous therapy with tTF fusion proteins (tTF-RGD, n=6; tTF-NGR, n=6) compared with tumor growth with infusion of physiological saline solution (NaCl, n=8) or tTF (n=1). The vertical arrows indicate the times of injection with the respective substances.
c: Inhibition of a human lung carcinoma (CCL185) growing as a xenograft in athymic nude mice by intravenous therapy with tTF fusion proteins (tTF-RGD, n=11) compared with the growth of the tumors in infusion of physiological saline solution (NaCl, n=10) or tTF (n=5). The vertical arrows indicate the times of the injections with the respective substances.
as §1

tumor blood vessels = test: Macroscopy and histology of tumors after injection (thrombosis induction in tumor vessels, necrosis); assay type: in vivo, mice
Method: FIG. 9: Macroscopic in vivo photograph of a tumor-bearing mouse 20 min after injection of the tTF-NGR fusion protein (A, left half of the picture) or NaCl (A, right half of the picture). […] After 60 min, the two mice were exsanguinated, the tumor was excised in toto and examined histologically. […] In contrast, the NaCl-treated tumor appears to be vital (C).
FIG. 10: Histology of the melanoma tumor 1 hour after intravenous injection of tTF-RGD (A and B), tTF-NGR (C and D) and common salt (E and F) in the caudal vein of the tumor-bearing nude mouse. […] The photographs are of representative areas of the tumors (A, C and E: 200× magnification, B, D and F 400× magnification; HE staining (staining described e.g. in H. C. Burck, Histologische Technik-Leitfaden für die Herstellung mikroskopischer Präparate in Unterricht und Praxis, 5th edition, Thieme Verlag, Stuttgart 1982, pages 109 ff.).
FIG. 35: Macrograph of a mouse bearing an M21 tumor at the end of treatment (day 7) with tTF-RGD fusion protein (A, C) or NaCl (B, D).
To verify the mechanism of action of thrombosis induction in tumor vessels, the following experiment was carried out: the human melanoma cell line was injected into the flank of two male BALB/c nude mice. On attaining a tumor size of approx. 500 mm^3, 2.0 mg/kg BW tTF-NGR or NaCl was injected into the caudal vein. […] After 60 min the mice were exsanguinated, the tumor was excised in toto and investigated histologically. […] In contrast, the tumor treated with NaCl appears to be vital (FIG. 9C).

[5] = melanoma tumor 1 hour after intravenous injection, HE staining

binding to the αvβ3 integrin in ELISA (integrin αvβ3): demonstrated
B1: tTF-RGD: fusion polypeptide tTF-GRGDSP (SEQ ID NO:3), peptide coupled to C-terminus of tTF (protein)
chain: SGTTNTVAAYNLTWKSTNFKTILEWEPKPVNQVYTVQISTKSGDWKSKCFYTTDTECDLTDEIVKDVKQTYLARVFSYPAGNVESTGSAGEPLYENSPEFTPYLETNLGQPTIQSFEQVGTKVNVTVEDERTLVRRNNTFLSLRDVFGKDLIYTLYYWKSSSSGKKTAKTNTNEFLIDVDKGENYCFSVQAVIPSRTVNRKSTDSPVECMGQEKGEFRGRGDSD
modifications: Amino acid sequence of tTF-GRGDSP
measured fluorescence intensity, factor higher than for tTF (human endothelial cells): 8 | Mean tumor volume Day 0 ([1]; HT1080 tumors, Day 0 (baseline)): 1725 ± 197 mm^3 | Mean tumor volume Day 7 ([1]; HT1080 tumors, Day 7): 1241 ± 122 mm^3 | effect on tumor growth ([1]; HT1080 xenograft, intravenous therapy, compared with control groups): significant inhibition of growth; also recorded: partial regression of tumor volume | H-E staining of heart, lung, liver and kidney (thrombosis, necrosis) [2]: did not show any visible thrombosis or necrosis | Mean tumor volume Day 0 ([3]; M21 tumors, Day 0 (baseline)): 585 ± 85 mm^3 | Mean tumor volume Day 7 ([3]; M21 tumors, Day 7): 514 ± 81 mm^3 | effect on tumor growth ([3]; M21 xenograft, intravenous therapy, compared with NaCl or tTF): Inhibition and partial remission | Mean tumor volume Day 0 ([4]; CCL185 tumors, Day 0 (baseline)): 45 ± 5 mm^3 | Mean tumor volume Day 7 ([4]; CCL185 tumors, Day 7): 130 ± 19 mm^3 | effect on tumor growth ([4]; CCL185 xenograft, intravenous therapy, compared with NaCl or tTF): Inhibition | H-E staining of tumors: thrombosis and necrosis (tumor blood vessels; FIG. 36, treated mice): Severe thrombosis and necrosis of tumor cells | macroscopic appearance of tumor at the end of treatment (tumor blood vessels; M21 tumor, day 7): clear signs of necrosis | histology of tumor blood vessels (thrombus formation) (tumor blood vessels; [5]): blood vessels appear to be thrombolytically occluded | histology: tumor necrosis in supply region of occluded vessel (tumor blood vessels; [5]): Extensive tumor necroses

— US7618943B2, “Fusion polypeptides, and use thereof in antivascular tumor therapy” (Oncoscience AG, priority 2003, dated 2009)
